{"source": "patent US20130058952A1", "about": "(UNIVERSIT T DUISBERG ESSEN, published 2013)", "key": {"[1]": {"biological_target": "T1, glycoprotein B (gB) of HSV-1 strain F on infected Vero cells (Herpes simplex virus type 1, strain F, UniProt P06436 30-903)", "assay": "cell-based or functional assay"}, "[2]": {"biological_target": "T1, glycoprotein B (gB) of HSV-1 strain F …", "assay": "flow cytometry, equilibrium binding to gB on HSV-1 F infected Vero cells, KD from nonlinear regression fit"}, "[3]": {"biological_target": "T1, glycoprotein B (gB) of HSV-1 strain F …", "assay": "flow cytometry on HSV-1 F infected Vero cells"}, "[4]": {"biological_target": "T1, glycoprotein B (gB) of HSV-1 strain F …", "assay": "flow cytometry on HSV-infected Vero cells (FIG. 5)"}, "[5]": {"biological_target": "T2, glycoprotein B (gB) of HSV-2 strain G on infected Vero cells (Herpes simplex virus type 2, strain G)", "T2 construct": "whole, on cells; also called HSV-2 G", "assay": "flow cytometry on HSV-2 G infected Vero cells"}, "[6]": {"biological_target": "T2, glycoprotein B (gB) of HSV-2 strain G …", "assay": "flow cytometry, equilibrium binding curves on HSV-2 G infected Vero cells"}, "[7]": {"biological_target": "designed 12-mer peptide PFYGYRE-G-FEDF", "assay": "cellulose-bound peptides probed with MAb 2c, chemiluminescence"}, "[8]": {"biological_target": "T3, truncated HSV-1 glycoprotein B gB(436-642) (Herpes simplex virus type 1, strain 17+, UniProt P10211 436-642)", "T3 construct": "range 436-642", "assay": "indirect immunofluorescence on transfected COS-1 cells"}, "[9]": {"biological_target": "T4, truncated HSV-1 glycoprotein B gB(1-223) (Herpes simplex virus type 1, strain 17+, UniProt P10211 31-223)", "T4 construct": "range 31-223", "assay": "indirect immunofluorescence on transfected COS-1 cells"}, "[10]": {"biological_target": "T5, truncated HSV-1 glycoprotein B gB(1-130) (Herpes simplex virus type 1, strain 17+, UniProt P10211 31-130)", "T5 construct": "range 31-130", "assay": "indirect immunofluorescence on transfected COS-1 cells"}, "[11]": {"biological_target": "T6, duotope 186FED188-βA-βA-300FYGYRE305", "T6 construct": "also called FED-βA-βA-FYGYRE", "assay": "peptide and duotope microarray on glass slides, mAb 2c, fluorescence laser scan, signal intensity (LU)"}, "[12]": {"biological_target": "T7, duotope 179YSQFMG184-βA-300FYGYRE305", "T7 construct": "also called YSQFMG-βA-FYGYRE", "assay": "peptide and duotope microarray on glass slides, mAb 2c, fluorescence laser scan, signal intensity (LU)"}, "[13]": {"biological_target": "T1, glycoprotein B (gB) of HSV-1 strain F …", "assay": "cell-based or functional assay", "remark": "listed apart in the source"}, "[14]": {"biological_target": "T1, glycoprotein B (gB) of HSV-1 strain F …", "assay": "flow cytometry competition on HSV-1 infected Vero cells against 100 nM mAb 2c"}}, "data": [{"binder": "humanized mAb h2c-V2 (antibody, V domains shown, also called hu2c-V2) VH: QVTLKESGPALVKPTQTLTLTCTFSGFSLSTSGMSVGWIRQPPGKALEWLAHIWWNNDKYYKPALKSRLTISKDTSKKQVVLTMTNMDPVDTATYYCARIYYGYRPYAMDYWGQGTLVTVSS VL: DIVMTQTPLSLPVTPGEPASISCRSSQSIVHSNGNTYLEWYLQKPGQSPQLLIYKVSNRFSGVPDRFSGSGSGTDFTLKISRVEAEDVGVYYCFQGSHVPWSFGQGTKVEIKR", "values": [{"measurement": "concentration [nM] required for 50% neutralization of 100 TCID50", "setting": "[1]", "result": 5.1, "unit": "nM"}, {"measurement": "concentration [nM] required for 100% neutralization of 100 TCID50", "setting": "[1]", "result": 15.6, "unit": "nM"}, {"measurement": "Kd", "setting": "[2]", "result": 21.4, "unit": "nM"}, {"measurement": "EC50 (read off the curve)", "setting": "[3]", "result": "~20", "unit": "nM"}, {"measurement": "fold lower affinity in comparison to mAb 2c", "setting": "[4]", "result": 2, "unit": "fold"}]}, {"binder": "2c-F(ab′)2 (other, also called F(ab′)-2-fragment; F(ab)2-fragment of mAb 2c) VH: QVTLKESGPGILLPSQTLSLTCSFSGFSLSTSGMSVGWIRQPSGKGLEWLGHIWWNNDKYYKPALKSRLTISKDTSNKQVFLKIASVVTADTATYYCARIYYGYRPYAMDYWGQGTSVTVSS VL: DVLMTQTPLSLPVSLGDQASISCRSSQSIVHSNGNTYLEWYLQKPGQSPKLLIYKVSNRFSGVPDRFSGSGSGTDFTLKISRVEAEDLGVYYCFQGSHVPWSFGGGTKLEIKR", "values": [{"measurement": "EC50 (read off the curve)", "setting": "[5]", "result": "~8", "unit": "nM"}, {"measurement": "Kd", "setting": "[6]", "result": 8.8, "unit": "nM"}]}, {"binder": "murine monoclonal antibody (mAb) 2c (antibody, V domains shown, also called 2c IgG; 2c-IgG) VH: QVTLKESGPGILLPSQTLSLTCSFSGFSLSTSGMSVGWIRQPSGKGLEWLGHIWWNNDKYYKPALKSRLTISKDTSNKQVFLKIASVVTADTATYYCARIYYGYRPYAMDYWGQGTSVTVSS VL: DVLMTQTPLSLPVSLGDQASISCRSSQSIVHSNGNTYLEWYLQKPGQSPKLLIYKVSNRFSGVPDRFSGSGSGTDFTLKISRVEAEDLGVYYCFQGSHVPWSFGGGTKLEIKR", "values": [{"measurement": "binding result", "setting": "[7]", "result": "binds"}, {"measurement": "binding result", "setting": "[8]", "result": "no binding"}, {"measurement": "binding result", "setting": "[9]", "result": "no binding"}, {"measurement": "binding result", "setting": "[10]", "result": "no binding"}, {"measurement": "binding result", "setting": "[11]", "result": "binds"}, {"measurement": "binding result", "setting": "[12]", "result": "binds"}]}, {"binder": "2c-Fab (Fab, V domains shown, also called Fab-fragment of mAb 2c; monovalent 2c-Fab fragment) VH: QVTLKESGPGILLPSQTLSLTCSFSGFSLSTSGMSVGWIRQPSGKGLEWLGHIWWNNDKYYKPALKSRLTISKDTSNKQVFLKIASVVTADTATYYCARIYYGYRPYAMDYWGQGTSVTVSS VL: DVLMTQTPLSLPVSLGDQASISCRSSQSIVHSNGNTYLEWYLQKPGQSPKLLIYKVSNRFSGVPDRFSGSGSGTDFTLKISRVEAEDLGVYYCFQGSHVPWSFGGGTKLEIKR", "values": [{"measurement": "EC50 (read off the curve)", "setting": "[5]", "result": "~20", "unit": "nM"}, {"measurement": "Kd", "setting": "[6]", "result": 17.7, "unit": "nM"}]}, {"binder": "humanized mAb h2c-V1 (antibody, V domains shown, also called hu2c-V1; mAb hu2c-V1) VH: QVTLKESGPALVKPTQTLTLTCTFSGFSLSTSGMSVGWIRQPPGKALEWLAHIWWNNDKYYKPALKSRLTISKDTSKNQVVLTMTNMDPVDTATYYCARIYYGYRPYAMDYWGQGTLVTVSS VL: DIVMTQTPLSLPVTPGEPASISCRSSQSIVHSNGNTYLEWYLQKPGQSPQLLIYKVSNRFSGVPDRFSGSGSGTDFTLKISRVEAEDVGVYYCFQGSHVPWSFGQGTKVEIKR", "values": [{"measurement": "concentration [nM] required for 50% neutralization of 100 TCID50", "setting": "[1]", "result": 3.7, "unit": "nM"}, {"measurement": "concentration [nM] required for 100% neutralization of 100 TCID50", "setting": "[1]", "result": 7.8, "unit": "nM"}, {"measurement": "inhibition of HSV-1 F cell-to-cell spread in Vero cell monolayers", "setting": "[13]", "result": 500, "unit": "nM"}, {"measurement": "Kd", "setting": "[2]", "result": 12.8, "unit": "nM"}, {"measurement": "EC50 (read off the curve)", "setting": "[3]", "result": "~10", "unit": "nM"}]}, {"binder": "humanized mAb h2c-V3 (antibody, V domains shown, also called hu2c-V3) VH: QVTLKESGPALVKPTQTLTLTCTFSGFSLSTSGMSVGWIRQPPGKALEWLAHIWWNNDKYYKPALKSRLTISKDTSKKQVFLTMTNMDPVDTATYYCARIYYGYRPYAMDYWGQGTLVTVSS VL: DIVMTQTPLSLPVTPGEPASISCRSSQSIVHSNGNTYLEWYLQKPGQSPQLLIYKVSNRFSGVPDRFSGSGSGTDFTLKISRVEAEDVGVYYCFQGSHVPWSFGQGTKVEIKR", "values": [{"measurement": "concentration [nM] required for 50% neutralization of 100 TCID50", "setting": "[1]", "result": 3.3, "unit": "nM"}, {"measurement": "concentration [nM] required for 100% neutralization of 100 TCID50", "setting": "[1]", "result": 7.8, "unit": "nM"}, {"measurement": "Kd", "setting": "[2]", "result": 11.4, "unit": "nM"}, {"measurement": "EC50 (read off the curve)", "setting": "[3]", "result": "~10", "unit": "nM"}, {"measurement": "IC50 (read off the curve)", "setting": "[14]", "result": "~100", "unit": "nM"}]}, {"binder": "humanized mAb h2c-V4 (antibody, V domains shown, also called hu2c-V4) VH: QVTLKESGPALVKPTQTLTLTCTFSGFSLSTSGMSVGWIRQPPGKALEWLAHIWWNNDKYYKPALKSRLTISKDTSKKQVFLTMTNMDPVDTATYYCARIYYGYRPYAMDYWGQGTLVTVSS VL: DVVMTQTPLSLPVTPGEPASISCRSSQSIVHSNGNTYLEWYLQKPGQSPQLLIYKVSNRFSGVPDRFSGSGSGTDFTLKISRVEAEDVGVYYCFQGSHVPWSFGQGTKVEIKR", "values": [{"measurement": "concentration [nM] required for 50% neutralization of 100 TCID50", "setting": "[1]", "result": 3.7, "unit": "nM"}, {"measurement": "concentration [nM] required for 100% neutralization of 100 TCID50", "setting": "[1]", "result": 7.8, "unit": "nM"}, {"measurement": "Kd", "setting": "[2]", "result": 13.7, "unit": "nM"}, {"measurement": "EC50 (read off the curve)", "setting": "[3]", "result": "~10", "unit": "nM"}]}]}
